Results on three substances are retold here after IntAct's records for PubMed 21048939.

This experiment has as its target arhg7_human ARHGEF7 (UniProt Q14155).
UniProt Q14155, sequence (Q14155 whole entry): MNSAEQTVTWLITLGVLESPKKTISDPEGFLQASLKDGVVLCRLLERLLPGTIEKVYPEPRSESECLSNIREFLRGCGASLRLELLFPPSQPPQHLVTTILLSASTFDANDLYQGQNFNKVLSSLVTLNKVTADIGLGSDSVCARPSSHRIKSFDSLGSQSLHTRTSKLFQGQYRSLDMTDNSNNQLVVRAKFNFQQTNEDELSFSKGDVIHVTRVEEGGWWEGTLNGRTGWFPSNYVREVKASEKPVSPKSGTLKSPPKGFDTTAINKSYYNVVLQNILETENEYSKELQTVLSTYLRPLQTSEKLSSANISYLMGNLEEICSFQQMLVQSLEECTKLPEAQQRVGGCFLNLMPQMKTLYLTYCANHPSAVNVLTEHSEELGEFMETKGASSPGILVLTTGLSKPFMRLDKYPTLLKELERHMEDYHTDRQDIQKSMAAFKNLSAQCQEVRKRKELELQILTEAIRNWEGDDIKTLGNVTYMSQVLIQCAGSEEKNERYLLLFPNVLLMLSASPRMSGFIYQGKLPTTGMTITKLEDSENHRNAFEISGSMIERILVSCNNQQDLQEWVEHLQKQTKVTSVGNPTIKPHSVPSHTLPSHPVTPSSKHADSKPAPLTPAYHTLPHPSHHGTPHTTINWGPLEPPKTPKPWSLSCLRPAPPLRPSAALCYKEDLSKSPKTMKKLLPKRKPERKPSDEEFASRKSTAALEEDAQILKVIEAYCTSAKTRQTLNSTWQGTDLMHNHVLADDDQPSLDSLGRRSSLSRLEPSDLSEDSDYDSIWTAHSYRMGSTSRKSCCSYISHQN
With “Leucine-rich repeat serine/threonine-protein kinase 2 (Homo sapiens), Q5S007 N1437S”, the “effect of a mutation on the interaction” value was “decreasing interaction”.
Consider “Leucine-rich repeat serine/threonine-protein kinase 2 (Homo sapiens), Q5S007 R1441C”, for which the “effect of a mutation on the interaction” value is listed as “decreasing interaction”.
Take “Leucine-rich repeat serine/threonine-protein kinase 2 (Homo sapiens), Q5S007 T1348N”: the “effect of a mutation on the interaction” value is given as “decreasing interaction”.
